Experiments:
Assay in all cases: SPR, antibody captured, C2 as analyte;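 note: biacore SPR at 37 °C, anti-C2 mAbs captured via goat anti-human IgG on CM5 chips, double-referenced sensorgrams fit to a 1:1 kinetic or steady-state model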
[1] = target: T1, human C2 H451A (human, UniProt P06681 21-752)
T1 sequence: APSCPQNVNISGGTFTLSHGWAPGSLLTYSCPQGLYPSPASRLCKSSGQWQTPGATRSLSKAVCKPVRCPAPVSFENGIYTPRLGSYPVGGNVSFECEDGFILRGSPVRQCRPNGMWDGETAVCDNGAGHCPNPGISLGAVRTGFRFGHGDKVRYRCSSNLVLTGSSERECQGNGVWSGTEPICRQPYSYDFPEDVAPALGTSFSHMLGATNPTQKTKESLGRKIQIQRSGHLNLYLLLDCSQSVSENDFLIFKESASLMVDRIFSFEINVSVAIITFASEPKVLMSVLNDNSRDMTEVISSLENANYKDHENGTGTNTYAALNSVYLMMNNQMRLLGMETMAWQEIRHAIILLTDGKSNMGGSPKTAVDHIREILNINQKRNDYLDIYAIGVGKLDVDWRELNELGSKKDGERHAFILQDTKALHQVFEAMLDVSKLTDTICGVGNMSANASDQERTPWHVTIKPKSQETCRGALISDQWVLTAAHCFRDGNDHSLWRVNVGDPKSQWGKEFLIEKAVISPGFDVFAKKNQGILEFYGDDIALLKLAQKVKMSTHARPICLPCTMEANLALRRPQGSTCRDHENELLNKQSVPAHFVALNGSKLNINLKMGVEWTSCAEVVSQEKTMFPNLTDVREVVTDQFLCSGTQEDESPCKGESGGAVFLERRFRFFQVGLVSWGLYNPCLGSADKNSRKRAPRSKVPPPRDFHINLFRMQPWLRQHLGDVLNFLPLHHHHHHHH

[2] = target: T2, human C2 E324A (human, UniProt P06681 21-752)
T2 sequence: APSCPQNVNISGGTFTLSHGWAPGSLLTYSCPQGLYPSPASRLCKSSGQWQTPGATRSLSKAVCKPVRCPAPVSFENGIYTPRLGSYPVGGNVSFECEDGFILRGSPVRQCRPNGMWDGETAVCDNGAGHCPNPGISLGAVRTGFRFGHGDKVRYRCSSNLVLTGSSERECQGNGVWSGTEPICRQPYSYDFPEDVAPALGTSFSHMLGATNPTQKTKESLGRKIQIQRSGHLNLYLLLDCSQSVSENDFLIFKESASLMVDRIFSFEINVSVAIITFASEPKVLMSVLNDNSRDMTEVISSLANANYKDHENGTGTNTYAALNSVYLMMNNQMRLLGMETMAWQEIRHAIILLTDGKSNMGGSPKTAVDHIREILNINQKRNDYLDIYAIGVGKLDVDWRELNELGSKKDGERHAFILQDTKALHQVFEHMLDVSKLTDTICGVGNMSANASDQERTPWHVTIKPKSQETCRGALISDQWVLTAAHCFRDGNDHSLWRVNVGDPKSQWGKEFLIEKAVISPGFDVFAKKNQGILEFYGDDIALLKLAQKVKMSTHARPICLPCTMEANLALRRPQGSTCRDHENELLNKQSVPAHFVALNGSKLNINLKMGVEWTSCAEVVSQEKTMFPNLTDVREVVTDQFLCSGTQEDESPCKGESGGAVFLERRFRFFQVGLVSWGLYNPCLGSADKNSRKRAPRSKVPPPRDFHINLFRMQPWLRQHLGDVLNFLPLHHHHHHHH

[3] = target: T3, human C2 P724A (human, UniProt P06681 21-752)
T3 sequence: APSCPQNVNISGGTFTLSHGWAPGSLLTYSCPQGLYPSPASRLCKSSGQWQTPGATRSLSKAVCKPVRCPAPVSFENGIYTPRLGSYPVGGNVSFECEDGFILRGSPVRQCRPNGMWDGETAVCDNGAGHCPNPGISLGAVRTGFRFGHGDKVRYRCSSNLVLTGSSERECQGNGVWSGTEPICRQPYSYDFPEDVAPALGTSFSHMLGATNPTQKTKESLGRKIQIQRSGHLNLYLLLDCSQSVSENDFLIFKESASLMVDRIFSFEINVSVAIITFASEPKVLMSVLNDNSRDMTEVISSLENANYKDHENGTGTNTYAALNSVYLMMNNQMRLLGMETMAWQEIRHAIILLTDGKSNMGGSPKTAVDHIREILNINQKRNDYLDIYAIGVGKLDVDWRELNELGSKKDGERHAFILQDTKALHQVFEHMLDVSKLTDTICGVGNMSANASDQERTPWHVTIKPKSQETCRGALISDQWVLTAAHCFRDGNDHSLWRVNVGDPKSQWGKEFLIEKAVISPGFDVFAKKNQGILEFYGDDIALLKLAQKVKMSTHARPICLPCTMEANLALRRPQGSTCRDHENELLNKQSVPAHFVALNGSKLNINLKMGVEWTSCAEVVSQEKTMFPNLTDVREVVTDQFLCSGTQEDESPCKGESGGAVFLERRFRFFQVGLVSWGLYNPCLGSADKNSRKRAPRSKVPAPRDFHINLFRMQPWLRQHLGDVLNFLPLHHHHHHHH

[4] = target: T4, human C2 R688A (human, UniProt P06681 21-752)
T4 sequence: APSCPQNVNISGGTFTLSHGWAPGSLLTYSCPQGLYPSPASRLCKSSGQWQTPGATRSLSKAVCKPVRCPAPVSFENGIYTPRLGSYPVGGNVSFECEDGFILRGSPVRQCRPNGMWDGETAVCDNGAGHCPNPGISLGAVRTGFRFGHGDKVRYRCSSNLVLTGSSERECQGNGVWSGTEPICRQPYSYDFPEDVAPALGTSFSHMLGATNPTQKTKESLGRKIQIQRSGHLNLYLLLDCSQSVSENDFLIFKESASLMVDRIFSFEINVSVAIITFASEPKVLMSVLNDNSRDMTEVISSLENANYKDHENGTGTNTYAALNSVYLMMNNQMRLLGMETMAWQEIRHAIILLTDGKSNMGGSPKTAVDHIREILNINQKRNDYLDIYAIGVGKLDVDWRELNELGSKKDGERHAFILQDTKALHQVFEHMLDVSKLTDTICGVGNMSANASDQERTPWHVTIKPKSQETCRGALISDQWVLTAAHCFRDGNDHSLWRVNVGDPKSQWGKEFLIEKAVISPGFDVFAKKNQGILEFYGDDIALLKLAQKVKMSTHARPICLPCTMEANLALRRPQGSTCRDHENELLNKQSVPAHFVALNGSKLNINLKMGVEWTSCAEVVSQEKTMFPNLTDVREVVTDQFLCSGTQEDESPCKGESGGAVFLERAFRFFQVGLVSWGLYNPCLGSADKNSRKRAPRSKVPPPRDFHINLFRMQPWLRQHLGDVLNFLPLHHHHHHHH

B1: RF16-226 (antibody, human IgG4 S228P, lambda)
heavy: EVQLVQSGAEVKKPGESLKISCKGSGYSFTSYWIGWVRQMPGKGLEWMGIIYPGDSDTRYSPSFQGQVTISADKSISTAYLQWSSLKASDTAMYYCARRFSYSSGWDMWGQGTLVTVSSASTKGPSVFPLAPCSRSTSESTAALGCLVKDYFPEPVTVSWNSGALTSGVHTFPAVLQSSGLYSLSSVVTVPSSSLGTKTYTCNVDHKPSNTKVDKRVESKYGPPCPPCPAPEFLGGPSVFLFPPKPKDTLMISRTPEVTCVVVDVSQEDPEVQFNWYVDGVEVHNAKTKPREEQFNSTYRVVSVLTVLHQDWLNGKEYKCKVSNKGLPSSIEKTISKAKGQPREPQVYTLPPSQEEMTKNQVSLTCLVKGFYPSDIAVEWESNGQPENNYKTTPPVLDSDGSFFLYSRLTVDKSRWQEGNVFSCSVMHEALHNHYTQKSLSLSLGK
light: SYELTQPPSVSVSPGQTARITCSGDALTSKYVAWYQQKSGLAPLLVIYEDTRRPSGIPAKFSGSSSGSVATLTISGAHGDDEADYYCYSTDASGHQRVFGGGTKLTVLSQPKAAPSVTLFPPSSEELQANKATLVCLISDFYPGAVTVAWKADGSPVKAGVETTKPSKQSNNKYAASSYLSLTPEQWKSHRSYSCQVTHEGSTVEKTVAPTECS
notes: pH-dependent anti-C2 antibody from a phage display library; also called WT
Kd [1]: 105 nM
Kd [2]: 12.2 nM
Kd [3]: 397 nM
Kd [4]: 25.3 nM

— patent US20220332804A1 (CSL INNOVATION, published 2022)
